Laboratory results: the Immune Epitope Database (IEDB)
Blank lines part the entries; values can stand above or below the sequence they belong to.

Tests used:
HLA-B*57:01 = test: IEDB peptide-MHC binding, purified MHC/direct/fluorescence; filed as Kd, often an IC50 or EC50 that approximates it; ≥ and ≤ were set here for values at or beyond the usual limits of such assays; settings: source organism: Vibrio vulnificus
HLA-B*58:01 = test: as above
HLA-B*46:01 = test: IEDB peptide-MHC binding, purified MHC/competitive/fluorescence; filed as Kd, often an IC50 or EC50 that approximates it; ≥ and ≤ were set here for values at or beyond the usual limits of such assays
HLA-B*40:01 [1] = test: IEDB peptide-MHC binding, purified MHC/competitive/radioactivity; filed as Kd, often an IC50 or EC50 that approximates it; ≥ and ≤ were set here for values at or beyond the usual limits of such assays
HLA-B*44:03 = test: as above
HLA-B*15:03 = test: as above; settings: source organism: Vaccinia virus WR
HLA-B*40:01 [2] = test: IEDB peptide-MHC binding, purified MHC/direct/fluorescence; filed as Kd, often an IC50 or EC50 that approximates it; ≥ and ≤ were set here for values at or beyond the usual limits of such assays
HLA-B*07:02 = test: as above
HLA-A*24:03 = test: as above
HLA-A*31:01 = test: as above; settings: source organism: Yersinia pestis Nepal516
HLA-A*01:01 = test: as above
HLA-B*08:01 [3] = test: as above
HLA-A*69:01 = test: as above
HLA-B*44:02 [4] = test: as above
HLA-B*27:05 = test: as above
HLA-A*11:01 = test: as above
HLA-A*26:01 [5] = test: as above
HLA-A*03:01 [6] = test: as above
HLA-A*02:01 = test: as above
HLA-B*15:01 [7] = test: as above; settings: source organism: Yersinia pestis Nepal516
HLA-A*29:02 = test: IEDB peptide-MHC binding, purified MHC/competitive/radioactivity; filed as Kd, often an IC50 or EC50 that approximates it; ≥ and ≤ were set here for values at or beyond the usual limits of such assays; settings: source organism: Mammarenavirus tacaribeense
HLA-A*23:01 = test: as above
HLA-A*24:02 = test: as above; settings: source organism: Mammarenavirus tacaribeense
HLA-B*44:02 [8] = test: as above
HLA-A*03:01 [9] = test: IEDB peptide-MHC binding, purified MHC/competitive/fluorescence; filed as Kd, often an IC50 or EC50 that approximates it; ≥ and ≤ were set here for values at or beyond the usual limits of such assays
HLA-A*32:01 = test: IEDB peptide-MHC binding, purified MHC/competitive/radioactivity; filed as Kd, often an IC50 or EC50 that approximates it; ≥ and ≤ were set here for values at or beyond the usual limits of such assays
HLA-B*08:01 [10] = test: as above; settings: source organism: Vaccinia virus WR
HLA-A*30:01 = test: as above; settings: source organism: Vaccinia virus WR
HLA-B*15:01 [11] = test: as above
HLA-B*18:01 = test: IEDB peptide-MHC binding, purified MHC/direct/fluorescence; filed as Kd, often an IC50 or EC50 that approximates it; ≥ and ≤ were set here for values at or beyond the usual limits of such assays
HLA-A*26:01 [12] = test: IEDB peptide-MHC binding, purified MHC/competitive/fluorescence; filed as Kd, often an IC50 or EC50 that approximates it; ≥ and ≤ were set here for values at or beyond the usual limits of such assays; settings: source organism: Kurkino virus
HLA-B*48:01 = test: IEDB peptide-MHC binding, purified MHC/direct/fluorescence; filed as Kd, often an IC50 or EC50 that approximates it; ≥ and ≤ were set here for values at or beyond the usual limits of such assays; settings: source organism: Escherichia coli O157:H7
[13] = source organism: Dengue virus 2 Jamaica/1409/1983
[14] = source organism: Yersinia pestis Nepal516
[15] = source organism: Dengue virus 3 Martinique/1243/1999
[16] = source organism: Dengue virus 1 Brazil/97-11/1997
[17] = source organism: Vaccinia virus WR
[18] = source organism: Salmonella enterica
[19] = source organism: Vibrio parahaemolyticus

Sequence: LAFSTRFSF
- Kd (HLA-B*57:01): 292 nM
- Kd (HLA-B*58:01; source organism: Vibrio vulnificus): 144 nM
- Kd (HLA-B*46:01; source organism: Vibrio vulnificus YJ016): 661 nM

Sequence: LEFFLIVLLI
- Kd (HLA-B*40:01 [1]; [13]): 650 nM
- Kd (HLA-B*44:03; [13]): 2480 nM

Sequence: LKYYYSNSY
- Kd (HLA-B*15:03): 0.242 nM

Sequence: LSEEIGLDL
- Kd (HLA-B*40:01 [2]; [14]): ≥ 20000 nM
- Kd (HLA-B*07:02; [14]): ≥ 20000 nM
- Kd (HLA-A*24:03; [14]): ≥ 20000 nM
- Kd (HLA-A*31:01): ≥ 20000 nM
- Kd (HLA-A*01:01; source organism: Yersinia pestis): 6380 nM
- Kd (HLA-B*08:01 [3]; [14]): ≥ 20000 nM
- Kd (HLA-B*58:01; [14]): ≥ 20000 nM
- Kd (HLA-A*69:01; [14]): ≥ 20000 nM
- Kd (HLA-B*44:02 [4]; [14]): ≥ 20000 nM
- Kd (HLA-B*27:05; [14]): ≥ 20000 nM
- Kd (HLA-A*11:01; [14]): ≥ 20000 nM
- Kd (HLA-A*26:01 [5]; [14]): ≥ 20000 nM
- Kd (HLA-A*03:01 [6]; [14]): ≥ 20000 nM
- Kd (HLA-A*02:01; [14]): ≥ 20000 nM
- Kd (HLA-B*15:01 [7]): ≥ 20000 nM

Sequence: LYGLITEQF
- Kd (HLA-A*24:03; source organism: Mammarenavirus machupoense): 0.2 nM
- Kd (HLA-A*29:02): 2070 nM
- Kd (HLA-A*23:01; source organism: Mammarenavirus tacaribeense): 3.98 nM
- Kd (HLA-A*24:02): 15.5 nM

Sequence: MEEALKGLPI
- Kd (HLA-B*40:01 [1]; [15]): 86.6 nM
- Kd (HLA-B*44:02 [8]; [15]): 338 nM
- Kd (HLA-B*44:03; [15]): 205 nM

Sequence: MEHKYSWKS
- Kd (HLA-B*44:03; [16]): 1000 nM

Sequence: MVFVELPSK
- Kd (HLA-A*03:01 [9]; source organism: Bacillus anthracis str. A0488): 101 nM

Sequence: MVRLPYKDA
- Kd (HLA-A*32:01; [17]): ≥ 77800 nM
- Kd (HLA-B*08:01 [10]): ≥ 77700 nM
- Kd (HLA-A*30:01): 0.763 nM
- Kd (HLA-B*15:01 [11]; [17]): ≥ 50700 nM
- Kd (HLA-B*15:03): ≥ 29900 nM

Sequence: NERWFREVI
- Kd (HLA-B*40:01 [2]; [18]): 653 nM
- Kd (HLA-B*18:01; [18]): 5.2 nM

Sequence: NSIPAVIGY
- Kd (HLA-A*26:01 [12]): 420 nM

Sequence: QQVPFCSHHF
- Kd (HLA-B*15:01 [11]; [16]): 13.9 nM
- Kd (HLA-B*44:03; [16]): 272 nM

Sequence: QYDDLHKKF
- Kd (HLA-B*40:01 [2]; [19]): ≥ 20000 nM
- Kd (HLA-B*07:02; [19]): ≥ 20000 nM
- Kd (HLA-A*24:03; [19]): 62.6 nM
- Kd (HLA-A*01:01; [19]): ≥ 20000 nM
- Kd (HLA-B*08:01 [3]; [19]): ≥ 20000 nM
- Kd (HLA-B*58:01; [19]): ≥ 20000 nM
- Kd (HLA-A*69:01; [19]): ≥ 20000 nM
- Kd (HLA-B*44:02 [4]; [19]): ≥ 20000 nM
- Kd (HLA-B*27:05; [19]): ≥ 20000 nM
- Kd (HLA-A*11:01; [19]): ≥ 20000 nM
- Kd (HLA-A*26:01 [5]; [19]): ≥ 20000 nM
- Kd (HLA-A*03:01 [6]; [19]): ≥ 20000 nM
- Kd (HLA-A*02:01; [19]): ≥ 20000 nM

Sequence: RLNPMHQLLR
- Kd (HLA-A*03:01 [9]; source organism: Influenza A virus H3N2): 805 nM

Sequence: RMKWMMAMRY
- Kd (HLA-A*03:01 [9]; source organism: Influenza A virus (A/chicken/Fujian/25/00(H9N2))): 131 nM

- Kd (HLA-B*48:01): ≥ 20000 nM
- Kd (HLA-B*27:05; source organism: Escherichia coli O157:H7): 24.8 nM
Sequence: RRHPMRLRK

Sequence: SEIQLTDYGA
- Kd (HLA-B*40:01 [1]; [16]): 972 nM
- Kd (HLA-B*44:02 [8]; [16]): 149 nM
- Kd (HLA-B*44:03; [16]): 42.6 nM

Sequence: SNINDFNIF
- Kd (HLA-B*15:03): 501 nM

Sequence: SVYGLMGFH
- Kd (HLA-A*03:01 [9]; source organism: Canarypox virus): 29.2 nM

Sequence: TEPEDIDCW
- Kd (HLA-B*44:02 [8]; source organism: Dengue virus 4 Philippines/H241/1956): 1140 nM

Sequence: TLYAVATTF
- Kd (HLA-B*46:01; source organism: Dengue virus 2 Thailand/NGS-C/1944): ≥ 20000 nM
- Kd (HLA-A*32:01; [13]): 81.3 nM
- Kd (HLA-A*23:01; [13]): 134 nM

Sequence: VEEDIRWKF
- Kd (HLA-B*18:01; source organism: Bacillus cereus): 19.2 nM

Sequence: VQHNIKHSF
- Kd (HLA-B*15:03): 0.203 nM
